From the supplement of paper PMC10567573

B1: KLHL13 (parent)
chain: GVSKVGLRKIIDFIYTAKLSLNMD

Variants of: B1
Assay: protein stability index of a GFP-peptide fusion (GPS, HEK-293T) (PSI 1-6); higher = more stable
Conditions: c terminus: a fixed tail appended
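Further: lentivirally expressed fusions sorted by FACS into six bins by GFP to DsRed ratio, PSI derived from sequencing read proportions per bin multiplied by bin number.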

In order of rising protein stability index:
1. GVSKVGLRKHIDFIYTAKLSLNMD [I10H]  1.14
2. GVSKVGLRKIIDFIQTAKLSLNMD [Y15Q]  1.36
3. GVSKVELRKIIDFIYTAKLSLNMD [G6E]  1.47
4. GVSKVGLRKEIDFIYTAKLSLNMD [I10E]  1.48
5. GVSKVCLRKIIDFIYTAKLSLNMD [G6C]  1.49
6. GVSKIGLRKIIDFIYTAKLSLNMD [V5I]  1.5
7. GCSKVGLRKIIDFIYTAKLSLNMD [V2C]  1.52
8. GVSKVGLRKIIDFIYTAKLSLNND [M23N]  1.53
9. GVSKVGLRKIIDFIYTVKLSLNMD [A17V]  1.56
10. GVSKVGLRKNIDFIYTAKLSLNMD [I10N]  1.63
11. GVSKVGLRKIIDFIYTAKSSLNMD [L19S]  1.63
12. GFSKVGLRKIIDFIYTAKLSLNMD [V2F]  1.65
13. GVSKVGLRKIIDFIYTAKLQLNMD [S20Q]  1.68
14. GVSKVGLMKIIDFIYTAKLSLNMD [R8M]  1.69
15. GHSKVGLRKIIDFIYTAKLSLNMD [V2H]  1.7
16. GVSKVGLRKIIDFIYTAKLSLNMK [D24K]  1.71
17. GVSKVGLRKIIDFIYTAKLSLNSD [M23S]  1.79
18. GSSKVGLRKIIDFIYTAKLSLNMD [V2S]  1.79
19. GVSKVGLRKPIDFIYTAKLSLNMD [I10P]  1.81
20. GVSKVGLRKIIDFIYTEKLSLNMD [A17E]  1.81
21. GVSKEGLRKIIDFIYTAKLSLNMD [V5E]  1.83
22. GVSKVGLRKIADFIYTAKLSLNMD [I11A]  1.87
23. GVSKVGLRKISDFIYTAKLSLNMD [I11S]  1.89
24. GVSKVGLPKIIDFIYTAKLSLNMD [R8P]  1.92
25. GVSKVGLRKIPDFIYTAKLSLNMD [I11P]  1.97
26. GVSKVGLRKIIDFIYTAKLSLNML [D24L]  2.01
27. GVSKVGWRKIIDFIYTAKLSLNMD [L7W]  2.05
28. GVSKVNLRKIIDFIYTAKLSLNMD [G6N]  2.05
29. GVSKVGLGKIIDFIYTAKLSLNMD [R8G]  2.07
30. GVSKVGLRKIIDFILTAKLSLNMD [Y15L]  2.07
31. GVSKVSLRKIIDFIYTAKLSLNMD [G6S]  2.08
32. GVSKVGLRKIIDFIYTAKLSLNDD [M23D]  2.09
33. GVSKVGLRKIEDFIYTAKLSLNMD [I11E]  2.1
34. GYSKVGLRKIIDFIYTAKLSLNMD [V2Y]  2.11
35. GVSKVGLRKIIDFIYTAKLRLNMD [S20R]  2.11
36. GVSKLGLRKIIDFIYTAKLSLNMD [V5L]  2.12
37. GVSKVGLRKIDDFIYTAKLSLNMD [I11D]  2.14
38. GVSKVGLRKIIDFIYTAKLSLNMQ [D24Q]  2.15
39. GVSKVRLRKIIDFIYTAKLSLNMD [G6R]  2.15
40. GVSKVGLRKIIDFIYTAKLSLNTD [M23T]  2.19
41. GVSKVGLRKIIDFIYTAKLSLNMY [D24Y]  2.2
42. GVSKVGLRKINDFIYTAKLSLNMD [I11N]  2.24
43. GVSKVGARKIIDFIYTAKLSLNMD [L7A]  2.27
44. GVSKVGLRKIIDFIYTAKLSLNMM [D24M]  2.28
45. GVSKVGLRKGIDFIYTAKLSLNMD [I10G]  2.31
46. GVSKVWLRKIIDFIYTAKLSLNMD [G6W]  2.32
47. GVSKVGLRKIIDFIYTAKCSLNMD [L19C]  2.34
48. GVSKVGLRKQIDFIYTAKLSLNMD [I10Q]  2.35
49. GVSKVGLRKIIDFIYTPKLSLNMD [A17P]  2.39
50. GVSKVQLRKIIDFIYTAKLSLNMD [G6Q]  2.4
51. GVSKVGLRKIIDFIYTAKLSLNCD [M23C]  2.45
52. GVSKVGLCKIIDFIYTAKLSLNMD [R8C]  2.46
53. GVSKVGLRKIIDFIYTAKLSLNAD [M23A]  2.48
54. GVSKVGLRKIIDFIYTAKLSLNMV [D24V]  2.49
55. GVSKVGRRKIIDFIYTAKLSLNMD [L7R]  2.5
56. GVSKVGLRKIIDFIGTAKLSLNMD [Y15G]  2.51
57. GVSKVGLRKIIDFITTAKLSLNMD [Y15T]  2.52
58. GVSKVGLIKIIDFIYTAKLSLNMD [R8I]  2.55
59. GVSKPGLRKIIDFIYTAKLSLNMD [V5P]  2.58
60. GVSKVGTRKIIDFIYTAKLSLNMD [L7T]  2.6
61. GVSKVGLRKIGDFIYTAKLSLNMD [I11G]  2.63
62. GVSKAGLRKIIDFIYTAKLSLNMD [V5A]  2.64
63. GVSKVGLRKIIDFIYTKKLSLNMD [A17K]  2.73
64. GVSKVGLRKIIDFIYTAKLSLNMN [D24N]  2.74
65. GVSKVGLRKRIDFIYTAKLSLNMD [I10R]  2.74
66. GVSKVGLRKIIDFIYTAKLSLNMF [D24F]  2.82
67. GVSKVGLRKIIDFIYTAKWSLNMD [L19W]  2.93
68. GVSKVGLRKKIDFIYTAKLSLNMD [I10K]  2.98
69. GVSKVGLRKIIDFIYTAKLSLNMT [D24T]  3.01
70. GVSKVGLRKIIDFIYTAKLSLNMH [D24H]  3.01
71. GVSKRGLRKIIDFIYTAKLSLNMD [V5R]  3.04
72. GVSKVYLRKIIDFIYTAKLSLNMD [G6Y]  3.06
73. GVSKVGLRKIIDFIYTWKLSLNMD [A17W]  3.08
74. GVSKVGLRKIIDFIYTAKVSLNMD [L19V]  3.11
75. GVSKVGIRKIIDFIYTAKLSLNMD [L7I]  3.25
76. GVSKVGCRKIIDFIYTAKLSLNMD [L7C]  3.38
77. GVSKVGLRKIIDFIYTGKLSLNMD [A17G]  3.4
78. GGSKVGLRKIIDFIYTAKLSLNMD [V2G]  3.41
79. GVSKVGLRKIIDFIYTAKLSLNMR [D24R]  3.43
80. GVSKVGLRKIIDFIYTYKLSLNMD [A17Y]  3.45
81. GVSKSGLRKIIDFIYTAKLSLNMD [V5S]  3.47
82. GVSKVGLRKIIDFIYTAKNSLNMD [L19N]  3.62
83. GVSKVVLRKIIDFIYTAKLSLNMD [G6V]  3.71
84. GVSKVGLRKIIDFIATAKLSLNMD [Y15A]  3.72
85. GVSKVGLRKIIDFIYTAKLSLNYD [M23Y]  3.73
86. GVSKVGLRKYIDFIYTAKLSLNMD [I10Y]  3.8
87. GVSKNGLRKIIDFIYTAKLSLNMD [V5N]  3.8
88. GVSKVGGRKIIDFIYTAKLSLNMD [L7G]  3.85
89. GVSKVGLRKIKDFIYTAKLSLNMD [I11K]  4.1
90. GVSKVGLRKWIDFIYTAKLSLNMD [I10W]  4.2
91. GVSKVGLRKSIDFIYTAKLSLNMD [I10S]  4.37
92. GVSKVGLLKIIDFIYTAKLSLNMD [R8L]  4.65
93. GVSKVLLRKIIDFIYTAKLSLNMD [G6L]  4.85
94. GVSKVGLAKIIDFIYTAKLSLNMD [R8A]  5.37
